From the nanobody polyreactivity screen of Harvey et al. (2022)

Assay: yeast display, Sf9 membrane polyspecificity reagent, FACS + sequencing; frameworks hold sequencing errors
Summary of the method: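 A nanobody's polyreactivity label depends on the gate it was sorted from. Yeast display cells were stained with 10% biotinylated, detergent-solubilized Sf9 membrane reagent for 1 hour at 4 °C, enriched on streptavidin microbeads and sorted by FACS. The low and high (top ~1%) gates were set on anti-HA fluorescence for expression and streptavidin fluorescence for reagent binding.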

Sequence	polyreactivity (PSR sort gate)
QVQLVESGGGLVQAGGSLRLSCAASGFIFRFNAMGWYRQAPGKERELVAVIRWSSGSTYYADSVKGRFTISRDNAKNTVYLQMNSLKPEDTAVYYCAAYVVPAYYYWGQGTQVTVSS	low polyreactivity
QDQLVESGGGLVQAGGSLRLSCAASGYIFRYYAMGWYRQAPGKERELVAAISWNGGRTYYADSVKGRFTISRDNAKNTVYLQMNSLKPEDTAVYYCNTYWDGAREYDYWGQGTQVTVSS	high polyreactivity
QVQLVESGGGLVQAGGSLRLSSAPSGRIFDHYAMGWYRQAHGKERELGAAITRSGGITYYADSVKGRFTISRDNAKNTVYLQMNSLKPEDTAVYYCAALSYRYTDKFDYWGQGTQVTVSS	low polyreactivity
QVQLVESGGGLVQAGVSLRLSCAASVITFVYYTMGWYRQAPGKERELVAAISQSAVNTYYADSVKGRFTISRDNAKNTVYLQMNSLKPEVTAVYYCNARFRATFTSYGTDYRRRFDYWGQGTQVTVSS	high polyreactivity
QDQLVESGGGLVQAGGSLRLSCAASGRNFGYYTRGWYRQAPGKERELVATINWSGGNTYYADSVKGRFTISRDNAKNTVYLQMTCLKPEDTAVYYCATRSRAPQQVYYQNYDYWGQGTQVTVSS	high polyreactivity
QVHLVESGGGLVQAGGSLRLSCAASGRTFGINAMGWYRQAPGKERELDAVISFGDGGTYYADSVKGRFTISRDNAKNTVYLQMKSLKPEDTAVYYCATDYQSTSVWGGHFVINPYDYWGQGTQVTVSS	low polyreactivity
QVQLVESGGGLVQAGGSLRLSCAASGSTFYYYAMGRYRQAPGKEMELVATISRGGSTNYADSVKGRFTISRDNAKNTVYLQMNSLKPEDTAVYYCAIGYLRPYGSHRESTPYDYWGEGTQVTVSS	low polyreactivity
QVQLVESGGGLVQAGGSLRLICAASGLIFYKYAMGWYRQAPGKERELVAAITSGGSTNYADSVKGRFTISRDNAKNSVYLQMNSLKPEVTAVYYCNADYNHYLVVRWWYPPVDYWGQGSQVTVSS	low polyreactivity
QVQLVESGVGLVQAGGSLRLICAASGSTFYRNAMGWYRHAPGKERELVAGISRRGGSTYYADSVKGRFTISRDIAKNRVYLQMNSLIPEDTAVYYCNADYPGIPHNDYWGQGTQVNVSS	low polyreactivity
QVQLVESGGGLVQAGGSLRLSCAASGRTFRRNVMGWYRQAPGKERELVAAISTRGGDTYYADSVKGRFTISRDNAKNTVYLQMNSLKPEDTAVYYCAAEYTYGYDYWGQGTQVTVSS	high polyreactivity
QVQLQESGGGLVQAGGSLCLSCAASGTIFFDGDMGWYRQAPGKEREFVAAINPGGSAYYADSVKGRLPLAAITHSVYLQMNSLKPEDTAVYYCAAKLFDVYGYYYWGQGTHVTVSS	low polyreactivity
QVQLVESGGGLVQAGGSLRLSCAASGSTFTFNAMGWYRQATGKERELVAAITRSGTSTYYADSVKGRFTISRDNAKNTVYLQMNSLKPEDNAVYYCAAGRLWKTYEYYYWGQGTQVTVSS	high polyreactivity
QVQLEESGGGLVQAGGSLRLSCAASGFTFTDYAMGWYRQAPGKERELVAVITYDSTYYADSVKGRFTISRDNAKNTVYLQMNSLKPEDTAVYYCAADSYDWGDFDYWGQGTQVTVSS	low polyreactivity
QVQLVESGGGLVQAGGSLRLSCAASGFTFRQNAMGWYRQAPRKERELVAAISSGGRTKYADSVKGRFTISRDNANNTVYLHMNSLKPEDTALYYCAADKRVYTQLNDSWGQGTQVTVSS	high polyreactivity
QVQLVESGGGLVQAGGSLRLSCAASGSIFTTNAMGWYRQAPGKERELVAAISSRGTSTYYADSVKGRFTISRDNAKNTVYLQMNSLKPEDTAVYYCPNPYGYWGQGTQVTVSS	high polyreactivity
QVQLEESGGGLVQAGGSLRLSCAASGSIFKFYAMGWYRQAPGKEREFVAAIRQSGGRTYYADSVKGRFTISRDNAKNTVYLPMNSLKPEDTAVYYCAADGYYWEYYYWGQGTQVTVSS	high polyreactivity
QVQLVESGGGLVQAGGSLRLSCAASGRIIYTYAMAWYRQAPGKERELVAAISWSGGSTYYADSVKGRFTISRDNAKNTVYLQMNSMKPEDTAVYYCNAAYYGYENLSKRGYWGQGTQVTVSS	high polyreactivity
QVQLVESGAGLVQAGGSLRLSCAASGRTVAWNAMGRYRQAPGKERELVAAISWSGTSTYYADSVKGRFTISRDNAKNTVYLQMNSLKPEDTAVYYCATSVKARQIYGYYYWGQGTQVSVSS	high polyreactivity
QVQLVESGGGLVQAGGSLRLSCAASGSTFTNYAMGWYRQAPGKERELVAAIDRRDGTTYYADSVKGRFTISRDNAKNTVYLQMNSLKPEDTAVYYCAADRDYSADVPGYYYWGQGTQVTVSS	low polyreactivity
QVQLVESGGGLVQAGGSIRLSCAASGRIFVRNAMGWYRQAPGKEREMVAAISWSSGGTYYADSVKGRFTISRDNAKNTVYLQMNSLKPEDTAVYYCNADPSRAGDYWGQGTQVTVSS	low polyreactivity
QVQLVESGGGLVQEGGSLRLSCAASGRIFPYYAMGWYRQAPGKERELVAAITSGSRTYYADSVKGRFTISRDNAKNTVYLQMNSLKPEHTAVYYCNAVGGNSAYVYWGQGTQVTVSS	high polyreactivity
QVQLVESGGGLVQAGGSLRLSCAASGLTFNDYAMGWYRQAPGKERELVAAISDIGGGTYYADSVKGRFTISRDNAKNTVYLQMNSLKPEETAVYYCAAEWQDWYGVDSWGQGTQVTVSS	low polyreactivity

Sequence	polyreactivity (PSR sort gate)
QVQLVESGGGLVQAGGSLRLSCAASGRIFSSYDMGWYRQAPGKEPELVAAISRSGARTYYADSVKGRFTISRDNAKNTVYLQMNSLKPEDTAVYYCAAEFRSWGGYRYRFNYWGQGTQVTVSS	high polyreactivity
QVQLQESGGCLVQAGGSQRLSCAASGYIFYFQYMGWYRQAQGKEREFVAAISDGANTNYADSVKGRFTISRDNAKNTEYLKMNSLKPEDTAVYYCAVYADENYYYIYWGQGTQVTVSS	low polyreactivity
QVQLVESGGGLVQAGGSLRLICAASGNIFTYYAMGWYRQAPWKERELVAAISSGDSTNYADSVKGRFTISRDNAKNTVYLQMNSLKPEDTAVYYCNVDRVPSRRYYAQKGYFRYYYWGQGTQVTVSS	high polyreactivity
QVQHVESGGGLVQAGGSLRLSCAASGRTFQWYTLGWYRQAPGKERELVAAISWSGTSTYYADSVKGRFTISRDNEKNTVYLLMNSLKPEDTAVYYCAAKTYPSLFFHYGYWGQGTQVTVSS	low polyreactivity
QVQLVESGGGLVQAGGSLRLSCAASGRTFYRNAMGWYRQAPGKERELVATITRRGGSTYYADSVKGRFTISRDNAKNTVYLQMNSLKPEDTAVYYCAAGSKDLYRPYDYWGQGTQVTVSS	high polyreactivity
QVQLVESGGALVQAGGSLRLSCAASGSTFVYYAMRWYRQTPGKERELVAAIRSDASTNYADSVKGRFTISRDNAKNTVYLQMNILKPEDTAVYYCNTAQLVSDEFDYWGQGTQVTVSS	low polyreactivity
QVQLVESGGGLVQAGGSLRLSCAASGYTFFTNVMGWYRKAPGKERELVATITAGGSTYADSVKGRFTISRDNAKNTFYLQMNSLKPEDTAVYYCAVDALTGAWLGGYPYWADGYDYWGQGTQVTVSS	low polyreactivity
QVQLVESGGGLVQAGGSLRLSCAATGRTFGSNAMGWYRQAPGKERELVAAISLRGGRTYYADSVKGRFTISRDTAKNTVYLQMNSLKPEDTAVYYCNAVHYLYGARSRLTYDYWGQGTQVTVSS	high polyreactivity
QVQLVESGGGLVQAGGSLRLSCSASGLIFRYYAMGWYRQAPGKEREFVAAISGRGASTYYADSVKGRFTISRDNSKNTVYLQMNSLKPEDTAVYYCATYFPSAVVAFHMEYWGQGTQVTVSS	low polyreactivity
QVQLVESVGGLVQAGGSLRLSCASSGSTFTYYAKVWYRQAPGKERELVAAISCTGTSTYYADSVKGRFTISRDNAKNTVYFQMNSLKPEDTAVYYSASTYRGYSGYKRRDYWGQGTQVTVSS	high polyreactivity
QVQLVESGGGLVQAGGSLRLSCAASGSNFAKNAMGWYRQAPGKERELVAAITSSGGSTYYADSVKGRFTISRDNAKNTVYLQMNSLNPEDTAVYYCARPNDWYHYHGWYWSIYRYDYWGQGTQVTVSS	high polyreactivity
QVQLVESGGGLVQAGGSLRLSCAGSGSIFHPYAMGWYRQAPGKERELVAAISKSGGNTYYADSVKGRFTISRDNAKNTVYLQMNSLKPEATAVYYCAALDYWGQGTQVTVSS	low polyreactivity
QVQLEESGGGLVQAGGSLRISCAASGRTLRSYAMGWYRQAPGKERELVAAISWNGGDTYADSVKGRFTISRDNAKNTVYLQMNSLKPEDTAVYYCAASRWFSRYWYGIDKYNYWGQGTQVTVSS	high polyreactivity
QVQLVESGGGLVQAGVSLRLSSAASGSTLGYNVMGWYRQAPGKERELVAAISGDGSTNYADSVKGRFTISRDNAKNTVYLQMNSLKPEDTAVFYCNAPFWGYRTSFSYPVVQRFDYWGQGTQVTVSS	low polyreactivity
QVQLVESGGCLVQAGGSLRLSCAATGIIFDGYAMGWYRQAPGKERELVAAISWSGGSTYYADSVKGRFTISRDNAKNTVYLQMNSLKPEDTAVYYCAAALPGWYHDDYDYWGQGTQVTVSS	low polyreactivity
QVQLVVSGGGLVQAGGSLSLSWDASGRTFARYTMGWYRQAPGKERELVASITRGGSPYYADSVKGRFTISRDNAKNYVYLQMNSLKAEDSSVFYCAARFPQHNYWAMDYCGQGTQVTVSS	high polyreactivity
QVQLVESGGGLVQAGGSLRLSCAASGYIFWENAMGWYRQAPGKERELVAAITVSGGGTYYADSVKGRFTISRDNAKNTVYLQMNSLKPEDTAVYYCAADEDNPWLWFYYWGQGTQVTVSS	low polyreactivity
QVQLVESGGGLVQAGGSLRLSCAASGGIFPYYAMGLYRQAPGKERELVADISSGGSTYYEDSVKGRFTISRDNAKNTVYLQMNSLKPEDTAVYYCAAEDTLAGSVARFGEYDYWGQGTQVTVSS	low polyreactivity
QVQLVESGGGLVQAGGSLRLSCAASGSIFDHYAMGWYRQAPGKERELVAAITAICDSTYYADSVKGRFTISRDNAKNTVYLEKNSLKAEDTAVYYCAVTYGGSDGGDYWGQGTQGTVSS	low polyreactivity
QFQHVESGGCLDQAGRSLRLSSAASGYIFVNAMGWYRQPPGKEMELVAAISSGGSTHYADSVKGRFTISRDNAKYTVYLQMNSLKPEDTAVYYCAAGSFYYGIVQGWYDYWGQGTQVTVSS	high polyreactivity
QVQLEESGGGLVQAGGSLRLSCAASGRTFPLYVMGWYRQAPGKEREWVAAISARGGSTYYADSVKGRFTISRDNAKNTVYLQMNSLKPEDTAVYYCATLVTNGRYDSWGQGTQVTVSS	high polyreactivity
